This note sets out measurements from publication PMC10844593.

Assay [1] concerns the target Flag-tagged human CHREBP fusion protein (human) (UniProt Q9NP71).
Assay [2] deals with Flag-tagged human AMPK-α2 fusion protein (human) (UniProt P54646).
Assay [3] deals with Flag-tagged human AMPK-α1 fusion protein (human) (UniProt Q13131).
Sequence of Flag-tagged human AMPK-α1 fusion protein (human) (Q13131 whole entry, the tested form may be a part): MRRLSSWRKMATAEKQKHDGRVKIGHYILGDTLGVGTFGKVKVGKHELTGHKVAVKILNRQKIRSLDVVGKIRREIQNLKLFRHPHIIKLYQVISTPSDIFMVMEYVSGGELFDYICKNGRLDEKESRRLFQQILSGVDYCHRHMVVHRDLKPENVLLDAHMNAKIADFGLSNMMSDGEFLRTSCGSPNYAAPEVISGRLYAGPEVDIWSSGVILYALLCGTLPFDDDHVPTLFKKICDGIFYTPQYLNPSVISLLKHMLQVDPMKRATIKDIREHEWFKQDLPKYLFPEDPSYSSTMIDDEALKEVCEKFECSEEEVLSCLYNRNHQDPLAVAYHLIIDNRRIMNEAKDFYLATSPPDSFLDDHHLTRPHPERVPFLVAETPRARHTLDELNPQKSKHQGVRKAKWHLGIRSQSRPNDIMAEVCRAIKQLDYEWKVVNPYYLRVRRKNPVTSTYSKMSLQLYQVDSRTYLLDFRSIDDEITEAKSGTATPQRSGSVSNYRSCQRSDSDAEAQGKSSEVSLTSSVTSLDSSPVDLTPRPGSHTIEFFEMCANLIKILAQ

Sequence of active CDK6/Cyclin D3 kinase (Q00534 whole entry): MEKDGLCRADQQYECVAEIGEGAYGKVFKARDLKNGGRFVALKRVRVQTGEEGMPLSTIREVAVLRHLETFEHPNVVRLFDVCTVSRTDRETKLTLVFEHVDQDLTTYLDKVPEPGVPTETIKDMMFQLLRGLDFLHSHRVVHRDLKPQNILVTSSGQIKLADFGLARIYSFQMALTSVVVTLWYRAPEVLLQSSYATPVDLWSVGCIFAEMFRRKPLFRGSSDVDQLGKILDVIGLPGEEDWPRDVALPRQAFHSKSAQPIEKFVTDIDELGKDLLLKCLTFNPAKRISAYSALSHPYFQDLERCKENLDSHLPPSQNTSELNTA
Sequence of active CDK6/Cyclin D3 kinase (P30281 whole entry): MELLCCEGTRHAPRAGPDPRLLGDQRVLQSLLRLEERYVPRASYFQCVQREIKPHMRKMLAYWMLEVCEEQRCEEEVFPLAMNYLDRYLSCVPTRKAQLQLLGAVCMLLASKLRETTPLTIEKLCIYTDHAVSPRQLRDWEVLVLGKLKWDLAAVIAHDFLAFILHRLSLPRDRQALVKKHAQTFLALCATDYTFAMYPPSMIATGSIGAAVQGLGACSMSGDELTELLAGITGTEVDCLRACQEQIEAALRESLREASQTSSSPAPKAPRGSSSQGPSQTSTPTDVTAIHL
Sequence of Flag-tagged human CHREBP fusion protein (human) (Q9NP71 whole entry, the tested form may be a part): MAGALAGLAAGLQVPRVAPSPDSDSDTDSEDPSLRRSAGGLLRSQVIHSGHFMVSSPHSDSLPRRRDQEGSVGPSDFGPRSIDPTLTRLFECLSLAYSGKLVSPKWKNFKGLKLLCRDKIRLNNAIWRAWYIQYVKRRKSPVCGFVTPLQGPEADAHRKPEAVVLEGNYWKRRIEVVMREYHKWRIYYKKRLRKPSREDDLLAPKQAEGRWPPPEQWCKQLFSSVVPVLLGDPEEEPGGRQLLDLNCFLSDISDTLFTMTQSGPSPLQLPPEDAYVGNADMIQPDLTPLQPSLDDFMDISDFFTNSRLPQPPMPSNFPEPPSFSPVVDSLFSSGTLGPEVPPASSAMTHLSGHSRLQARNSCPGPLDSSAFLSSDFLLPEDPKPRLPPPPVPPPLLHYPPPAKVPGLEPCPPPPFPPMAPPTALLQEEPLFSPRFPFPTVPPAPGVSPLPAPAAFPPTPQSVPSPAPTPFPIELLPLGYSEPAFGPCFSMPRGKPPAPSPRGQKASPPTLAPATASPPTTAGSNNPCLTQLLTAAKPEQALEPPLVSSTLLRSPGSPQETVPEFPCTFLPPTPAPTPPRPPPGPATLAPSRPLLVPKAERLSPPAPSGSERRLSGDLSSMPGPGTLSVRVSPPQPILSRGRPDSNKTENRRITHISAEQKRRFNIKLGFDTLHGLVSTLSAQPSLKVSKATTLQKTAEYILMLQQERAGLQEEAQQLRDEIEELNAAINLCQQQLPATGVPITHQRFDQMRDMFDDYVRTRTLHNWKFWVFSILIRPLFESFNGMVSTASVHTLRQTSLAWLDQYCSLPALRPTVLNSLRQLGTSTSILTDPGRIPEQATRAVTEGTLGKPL
Sequence of Flag-tagged human AMPK-α2 fusion protein (human) (P54646 whole entry, the tested form may be a part): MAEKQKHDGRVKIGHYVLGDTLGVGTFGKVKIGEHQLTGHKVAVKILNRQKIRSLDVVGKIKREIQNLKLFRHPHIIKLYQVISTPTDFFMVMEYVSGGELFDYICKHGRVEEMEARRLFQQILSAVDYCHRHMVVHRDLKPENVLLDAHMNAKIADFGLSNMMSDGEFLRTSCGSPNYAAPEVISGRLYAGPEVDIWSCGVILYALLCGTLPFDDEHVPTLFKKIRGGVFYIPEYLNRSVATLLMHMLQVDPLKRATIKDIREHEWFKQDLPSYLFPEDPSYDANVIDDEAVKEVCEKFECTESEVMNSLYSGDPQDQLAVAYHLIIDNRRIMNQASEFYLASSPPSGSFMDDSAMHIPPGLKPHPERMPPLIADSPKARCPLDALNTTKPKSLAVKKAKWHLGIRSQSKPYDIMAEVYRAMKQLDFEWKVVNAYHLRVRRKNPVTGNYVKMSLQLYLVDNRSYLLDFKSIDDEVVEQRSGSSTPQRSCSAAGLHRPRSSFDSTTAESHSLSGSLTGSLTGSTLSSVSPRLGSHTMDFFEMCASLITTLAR

Turning to “active CDK6/Cyclin D3 kinase (from UniProt Q00534 1-326; P30281 1-292) (complex)”, the fold increase in total spectrum counts (TSC) of phosphorylated peptides of the substrate after in vitro kinase reaction with CDK6/D3 (mass spectrometry) came to 6.43 fold in assay [1], 46.8 fold in assay [2] and 14.7 fold in assay [3].
